Results as given in the supplement of paper PMC9732359.
± gives the uncertainty stated by the source.

Test: protein stability index of a GFP-peptide fusion (yeast GPS) (PSI 1-4); higher = more stable; sorted into four equal gates, so the index is relative within each strain
How it was run: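 The protein stability index combines read frequencies across sorting gates, each weighted by its gate number and then summed. To obtain those frequencies, a pooled yeast library of GFP fusions to tiled 17-residue yeast protein peptides, on a plasmid also expressing Cherry, was grown to mid-log phase in leucine-free medium. The cells were sorted into four equal gates by GFP/Cherry ratio before plasmid amplification by PCR and Illumina sequencing.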

ETQVLVSTPEKWDITTR [BRR2]
protein stability index (doa10∆): 3.17 ± 0.092
protein stability index (pdr5∆): 3.26 ± 0.083
protein stability index (san1∆): 3.31 ± 0.053
protein stability index (ubr1∆): 3.21 ± 0.034

ETVAKSKNAERKWAARA [RPS8A]
protein stability index (doa10∆): 3.184 ± 0.028
protein stability index (pdr5∆): 3.362 ± 0.027
protein stability index (san1∆): 3.196 ± 0.018
protein stability index (ubr1∆): 3.315 ± 0.021

EVAKRLVELMFIRSTNS [FAS1]
protein stability index (doa10∆): 1.79 ± 0.067
protein stability index (pdr5∆): 2.14 ± 0.069
protein stability index (san1∆): 2.5 ± 0.085
protein stability index (ubr1∆): 1.49 ± 0.042

EVEKAHPIRLYTRYLDR [PRP8]
protein stability index (doa10∆): 3.11 ± 0.082
protein stability index (pdr5∆): 2.51 ± 0.068
protein stability index (san1∆): 2.35 ± 0.078
protein stability index (ubr1∆): 2.94 ± 0.048

EVFSVLGIEAARYSIIR [RPO31]
protein stability index (doa10∆): 1.72 ± 0.13
protein stability index (pdr5∆): 1.63 ± 0.11
protein stability index (san1∆): 1.43 ± 0.25
protein stability index (ubr1∆): 1.59 ± 0.14

EVHDLIGFITSGTYHLN [POP1]
protein stability index (doa10∆): 2.69 ± 0.15
protein stability index (pdr5∆): 2.64 ± 0.14
protein stability index (san1∆): 2.11 ± 0.13
protein stability index (ubr1∆): 2.48 ± 0.11

EVKTPKIPLFTFAKSKN [SIR4]
protein stability index (doa10∆): 2.77 ± 0.054
protein stability index (pdr5∆): 2.98 ± 0.06
protein stability index (san1∆): 2.57 ± 0.043
protein stability index (ubr1∆): 2.81 ± 0.042

EVLVTPGLEFLDDTTIP [MCD1]
protein stability index (doa10∆): 2.02 ± 0.057
protein stability index (pdr5∆): 2.98 ± 0.059
protein stability index (san1∆): 3.25 ± 0.037
protein stability index (ubr1∆): 3.08 ± 0.059

EVQFGLFSPEEVRAISV [RPO21]
protein stability index (doa10∆): 2.85 ± 0.076
protein stability index (pdr5∆): 3.04 ± 0.059
protein stability index (san1∆): 3 ± 0.045
protein stability index (ubr1∆): 3.12 ± 0.034

EVSGSIQYKKEYEELKE [SMC1]
protein stability index (doa10∆): 3.59 ± 0.15
protein stability index (pdr5∆): 3.15 ± 0.14
protein stability index (san1∆): 3.29 ± 0.089
protein stability index (ubr1∆): 3.35 ± 0.068

EVSKDLIAVYYSFGGLL [RPB8]
protein stability index (doa10∆): 2.55 ± 0.051
protein stability index (pdr5∆): 2.7 ± 0.067
protein stability index (san1∆): 2.46 ± 0.079
protein stability index (ubr1∆): 2.72 ± 0.057

EVTKLLKNEGIDLDHKR [SMC4]
protein stability index (doa10∆): 3.08 ± 0.12
protein stability index (pdr5∆): 3.2 ± 0.17
protein stability index (ubr1∆): 3.55 ± 0.1

EVVKSLYDRPLKPDLNK [NAS6]
protein stability index (doa10∆): 3.18 ± 0.11
protein stability index (pdr5∆): 3.38 ± 0.098
protein stability index (san1∆): 2.85 ± 0.18
protein stability index (ubr1∆): 3.42 ± 0.1

EVYKAEKDAVSVFGFRT [RPS24A]
protein stability index (doa10∆): 3.24 ± 0.15
protein stability index (pdr5∆): 3.12 ± 0.086
protein stability index (san1∆): 3.36 ± 0.07
protein stability index (ubr1∆): 3.31 ± 0.13

EYIDDHRSGKIVVQLNG [RPS22A]
protein stability index (doa10∆): 3.21 ± 0.23
protein stability index (pdr5∆): 3.28 ± 0.17
protein stability index (san1∆): 2.77 ± 0.13
protein stability index (ubr1∆): 2.47 ± 0.23

EYRPFSKKVLECLPAEG [DIS3]
protein stability index (doa10∆): 1.39 ± 0.13
protein stability index (pdr5∆): 1.68 ± 0.12
protein stability index (san1∆): 1.46 ± 0.1
protein stability index (ubr1∆): 1.56 ± 0.068

EYSRDCFCEDHCDKCSV [RPB3]
protein stability index (doa10∆): 3.13 ± 0.19
protein stability index (pdr5∆): 3.51 ± 0.15
protein stability index (san1∆): 3.24 ± 0.18
protein stability index (ubr1∆): 2.98 ± 0.2

FAADGDALVKRFKNSVK [PRE7]
protein stability index (doa10∆): 2.64 ± 0.28

FAAILVLLVLPFTDRSV [COB]
protein stability index (doa10∆): 2.88 ± 0.081
protein stability index (pdr5∆): 1.3 ± 0.095
protein stability index (san1∆): 1.54 ± 0.15
protein stability index (ubr1∆): 1.13 ± 0.065

FAALSDSYGQGSMTKTW [SSN2]
protein stability index (doa10∆): 3.17 ± 0.094
protein stability index (pdr5∆): 3.34 ± 0.088
protein stability index (san1∆): 3.23 ± 0.1
protein stability index (ubr1∆): 3.2 ± 0.063

FAESPFFDKTSNNQVIK [MED6]
protein stability index (doa10∆): 3.49 ± 0.081
protein stability index (pdr5∆): 2.92 ± 0.096
protein stability index (san1∆): 2.71 ± 0.076
protein stability index (ubr1∆): 2.96 ± 0.069

FAEYIQANIQLYSIRED [PRE1]
protein stability index (doa10∆): 2.39 ± 0.1
protein stability index (pdr5∆): 2.67 ± 0.091
protein stability index (san1∆): 2.49 ± 0.068
protein stability index (ubr1∆): 2.59 ± 0.091

FAFLNAMFFGNYGSSLQ [AAR2]
protein stability index (doa10∆): 2.9 ± 0.064
protein stability index (pdr5∆): 2.5 ± 0.075
protein stability index (san1∆): 2.91 ± 0.072
protein stability index (ubr1∆): 2.56 ± 0.069

FAKEKLTKKEKKEANLF [RPL6A]
protein stability index (doa10∆): 3.02 ± 0.072
protein stability index (pdr5∆): 3.08 ± 0.08
protein stability index (san1∆): 3.19 ± 0.073
protein stability index (ubr1∆): 3.14 ± 0.05

FAKQVDVQLERVADEDA [IRR1]
protein stability index (doa10∆): 3.15 ± 0.15
protein stability index (pdr5∆): 3.13 ± 0.29
protein stability index (san1∆): 2.76 ± 0.26

FAQPVADIENSTSGDPS [SSN2]
protein stability index (pdr5∆): 3.14 ± 0.23
protein stability index (san1∆): 2.9 ± 0.16
protein stability index (ubr1∆): 2.75 ± 0.24

FCRDCNNMLYPREDKEN [RPB9]
protein stability index (doa10∆): 3.11 ± 0.083
protein stability index (pdr5∆): 3.11 ± 0.076
protein stability index (san1∆): 2.9 ± 0.064
protein stability index (ubr1∆): 3.08 ± 0.061

FDDLEVEELPTFHDYDM [RRP42]
protein stability index (doa10∆): 2.6 ± 0.069
protein stability index (pdr5∆): 2.63 ± 0.064
protein stability index (san1∆): 2.79 ± 0.043
protein stability index (ubr1∆): 2.88 ± 0.043

FDKLLNIPRRELKINLP [SRB4]
protein stability index (doa10∆): 2.57 ± 0.074
protein stability index (pdr5∆): 2.6 ± 0.053
protein stability index (san1∆): 2.74 ± 0.071
protein stability index (ubr1∆): 2.12 ± 0.061

FDPSKDVLINELLDQVT [CDC53]
protein stability index (doa10∆): 2.74 ± 0.066
protein stability index (pdr5∆): 2.15 ± 0.047
protein stability index (san1∆): 2.24 ± 0.087
protein stability index (ubr1∆): 2.5 ± 0.054

FDSLIKVQISKIPILAQ [RPN9]
protein stability index (doa10∆): 2.69 ± 0.081
protein stability index (pdr5∆): 1.8 ± 0.056
protein stability index (san1∆): 2.59 ± 0.094
protein stability index (ubr1∆): 1.96 ± 0.081

FDTDWNPHQDLQAQDRA [SNF2]
protein stability index (doa10∆): 3.07 ± 0.068
protein stability index (pdr5∆): 3.16 ± 0.056
protein stability index (san1∆): 2.94 ± 0.037
protein stability index (ubr1∆): 3.35 ± 0.05

FDVNTLCLMTWKEVMFD [CDC53]
protein stability index (doa10∆): 2.61 ± 0.096
protein stability index (pdr5∆): 2.59 ± 0.065
protein stability index (san1∆): 2.81 ± 0.11
protein stability index (ubr1∆): 2.85 ± 0.068

FELVHHFFQIDGFNKTF [YML103C/NUP188]
protein stability index (doa10∆): 2.03 ± 0.075
protein stability index (pdr5∆): 2.24 ± 0.091
protein stability index (san1∆): 2.42 ± 0.074
protein stability index (ubr1∆): 2.36 ± 0.065

FENVKLLAEYDNIYRNL [MED4]
protein stability index (doa10∆): 2.43 ± 0.052
protein stability index (pdr5∆): 2.64 ± 0.045
protein stability index (san1∆): 2.62 ± 0.071
protein stability index (ubr1∆): 2.31 ± 0.028

FEPSISRSNFQGKHTKF [LRP1]
protein stability index (doa10∆): 3.2 ± 0.1
protein stability index (pdr5∆): 3.26 ± 0.15
protein stability index (san1∆): 2.97 ± 0.14
protein stability index (ubr1∆): 3.28 ± 0.094

FEYCRIDGSTSHEERIE [ISW2]
protein stability index (doa10∆): 2.44 ± 0.047
protein stability index (pdr5∆): 2.23 ± 0.052
protein stability index (san1∆): 2.01 ± 0.061
protein stability index (ubr1∆): 2.49 ± 0.05

FFDPKPFDQNLDSNNNN [SWI1]
protein stability index (doa10∆): 2.98 ± 0.085
protein stability index (pdr5∆): 2.83 ± 0.092
protein stability index (san1∆): 3.14 ± 0.048
protein stability index (ubr1∆): 2.88 ± 0.069

FFSSDWRFLQILRNGID [POP1]
protein stability index (doa10∆): 2.29 ± 0.073
protein stability index (pdr5∆): 2.27 ± 0.088
protein stability index (san1∆): 2.5 ± 0.1
protein stability index (ubr1∆): 2.18 ± 0.072

FGANQATNTFGSNQQSS [YGR119C/NUP57]
protein stability index (doa10∆): 2.91 ± 0.12
protein stability index (pdr5∆): 3.26 ± 0.076
protein stability index (san1∆): 3.2 ± 0.12
protein stability index (ubr1∆): 2.92 ± 0.073

FGSRVMIAKEVKTSPDA [FAS1]
protein stability index (doa10∆): 3.37 ± 0.12
protein stability index (pdr5∆): 2.76 ± 0.26
protein stability index (san1∆): 2.81 ± 0.27
protein stability index (ubr1∆): 3.49 ± 0.2

FHESGSQYSTMVNIGLH [RGR1]
protein stability index (doa10∆): 3.19 ± 0.12
protein stability index (pdr5∆): 3.19 ± 0.11
protein stability index (san1∆): 2.7 ± 0.18
protein stability index (ubr1∆): 3.27 ± 0.14

FHFAIEQISNNSNQQQN [SIN4]
protein stability index (doa10∆): 2.93 ± 0.061
protein stability index (pdr5∆): 2.53 ± 0.044
protein stability index (san1∆): 2.74 ± 0.066
protein stability index (ubr1∆): 2.9 ± 0.049

FHIDHTKPSDLTIKDIV [RPO21]
protein stability index (doa10∆): 2.71 ± 0.048
protein stability index (pdr5∆): 2.66 ± 0.06
protein stability index (san1∆): 2.56 ± 0.059
protein stability index (ubr1∆): 2.8 ± 0.035

FHSAVENLVQGNGNVSE [YCG1]
protein stability index (doa10∆): 3.21 ± 0.092
protein stability index (pdr5∆): 2.97 ± 0.067
protein stability index (san1∆): 3.23 ± 0.069
protein stability index (ubr1∆): 3.02 ± 0.12

FILIPLYKIFSYALSME [SNU114]
protein stability index (doa10∆): 1.65 ± 0.042
protein stability index (pdr5∆): 1.45 ± 0.037
protein stability index (san1∆): 1.46 ± 0.075
protein stability index (ubr1∆): 1.68 ± 0.031

FIRDELDENKWYKFNDD [UBP6]
protein stability index (doa10∆): 1.86 ± 0.063
protein stability index (pdr5∆): 2.15 ± 0.043
protein stability index (san1∆): 1.94 ± 0.096
protein stability index (ubr1∆): 1.97 ± 0.062

FIRKYINQKALRKIQAL [GAL11]
protein stability index (doa10∆): 2.38 ± 0.25
protein stability index (pdr5∆): 1.49 ± 0.22
protein stability index (san1∆): 1.79 ± 0.23

FITTLLKSLYSFFNISP [SIN4]
protein stability index (doa10∆): 2.26 ± 0.042
protein stability index (pdr5∆): 1.5 ± 0.037
protein stability index (san1∆): 1.46 ± 0.057
protein stability index (ubr1∆): 1.53 ± 0.034

FKDETISKKIIGMSLLM [SIR3]
protein stability index (doa10∆): 3.04 ± 0.062
protein stability index (pdr5∆): 2.07 ± 0.06
protein stability index (san1∆): 2.78 ± 0.068
protein stability index (ubr1∆): 3.51 ± 0.058

FKLQEEERERKDQYVPE [RPS17A]
protein stability index (doa10∆): 3.14 ± 0.14
protein stability index (pdr5∆): 3.38 ± 0.091
protein stability index (san1∆): 3.4 ± 0.061
protein stability index (ubr1∆): 3.24 ± 0.093
